Reference: paper PMC7308506 (2020)

How the values were obtained:
activated factor XII = target: T1, activated factor XII; assay: SPR
T1 chain 1: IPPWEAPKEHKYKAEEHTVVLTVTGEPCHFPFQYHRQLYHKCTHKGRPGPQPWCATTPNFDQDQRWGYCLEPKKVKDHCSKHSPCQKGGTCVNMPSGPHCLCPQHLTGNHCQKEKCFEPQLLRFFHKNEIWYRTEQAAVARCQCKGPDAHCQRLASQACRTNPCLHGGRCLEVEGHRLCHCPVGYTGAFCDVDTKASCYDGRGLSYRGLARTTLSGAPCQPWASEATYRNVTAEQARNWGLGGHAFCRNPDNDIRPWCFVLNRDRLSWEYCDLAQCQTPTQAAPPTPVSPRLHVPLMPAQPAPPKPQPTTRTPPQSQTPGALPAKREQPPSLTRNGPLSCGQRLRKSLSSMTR
T1 chain 2: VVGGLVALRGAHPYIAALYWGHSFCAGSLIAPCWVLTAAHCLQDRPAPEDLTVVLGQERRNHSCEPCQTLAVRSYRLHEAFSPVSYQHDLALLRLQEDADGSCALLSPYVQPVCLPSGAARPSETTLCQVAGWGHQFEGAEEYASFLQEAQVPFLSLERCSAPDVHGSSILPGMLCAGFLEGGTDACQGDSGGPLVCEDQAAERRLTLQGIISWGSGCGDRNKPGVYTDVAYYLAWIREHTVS

kallikrein = assay: SPR

B1: LCTX-F2 (peptide)
chain: GAKACTPRLHDCSHDRHSCCRGELFKDVCYCFYPEGEDKTEVCSCQQPKSHKYIEKVVDKTKTLVG
Kd (activated factor XII): 7.2 nM
Kd (kallikrein): 4.6 nM
